Laboratory results from the RNAGym collection of RNA variant scans (doi:10.7554/elife.80360).

B1: Hammerhead Ribozyme (parent)
chain: ACCGGAUGUGCUUUCCGGUCUGAUGAGUCCGUGAGGACGAAACAG

Variants of: B1
Assay: self-cleavage, relative activity (ratio to wild type); higher = more cleavage; co-transcriptional

Row | Variant | self-cleavage
1 | A1U C15G | 0.355
2 | A1U C15A | 0.373
3 | A1U C15U | 0.55
4 | C2A G17C | 0.359
5 | C2A G17A | 0.364
6 | C2A G17U | 0.365
7 | A1U G35C | 0.47
8 | A1U G35A | 0.635
9 | A1U G35U | 0.451
10 | C2A A23C | 0.297
11 | C2A A23U | 0.33
12 | C2A A23G | 0.334
13 | A1U G25U | 0.435
14 | A1U G25A | 0.32
15 | A1U G25C | 0.357
16 | C2A C30U | 0.847
17 | C2A C30G | 0.333
18 | C2A C30A | 0.473
19 | C2A | 0.866
20 | C2A G4A | 0.322
21 | C2A G4U | 1.77
22 | C2A G4C | 0.346
23 | C2A C3G | 0.277
24 | C2A C3U | 0.312

Row | Variant | self-cleavage
25 | C2A C3A | 0.476
26 | C2A G10C | 0.662
27 | C2A G10U | 0.88
28 | C2A G10A | 0.934
29 | A1U G18U | 0.475
30 | A1U G18A | 0.477
31 | A1U G18C | 0.39
32 | A1U G31A | 1.03
33 | A1U G31U | 0.748
34 | A1U G31C | 0.621
35 | A1U G33U | 0.972
36 | A1U G33A | 0.651
37 | A1U G33C | 0.705
38 | A1U U32A | 0.692
39 | A1U U32G | 0.465
40 | A1U U32C | 0.436
41 | A1U G10A | 0.815
42 | A1U G10U | 0.997
43 | A1U G10C | 0.6
44 | C2A A40G | 0.324
45 | C2A A40U | 0.35
46 | C2A A40C | 0.353
47 | C2A C11A | 0.958
48 | C2A C11U | 0.431

Row | Variant | self-cleavage
49 | C2A C11G | 0.828
50 | C2A C29U | 0.584
51 | C2A C29A | 0.376
52 | C2A C29G | 0.378
53 | A1U C16A | 0.419
54 | A1U C16G | 0.459
55 | A1U C16U | 0.431
56 | A1U U9A | 0.565
57 | A1U U9G | 0.348
58 | A1U U9C | 0.656
59 | C2A C38A | 0.381
60 | C2A C38U | 0.606
61 | C2A C38G | 0.373
62 | A1U U24A | 1.04
63 | A1U U24C | 0.726
64 | A1U U24G | 0.508
65 | A1U U12G | 0.753
66 | A1U U12C | 0.546
67 | A1U U12A | 0.66
68 | A1U U19A | 1.1
69 | A1U U19C | 0.617
70 | A1U U19G | 1.28
71 | A1U U13G | 0.812
72 | A1U U13C | 0.94

Row | Variant | self-cleavage
73 | A1U U13A | 1.02
74 | C2A C16A | 0.365
75 | C2A C16G | 0.363
76 | C2A C16U | 0.554
77 | A1U G8U | 0.728
78 | A1U G8A | 0.687
79 | A1U G8C | 0.599
80 | C2A C15A | 0.378
81 | C2A C15G | 0.319
82 | C2A C15U | 0.466
83 | C2A A37C | 0.376
84 | C2A A37G | 0.427
85 | C2A A37U | 0.368
86 | A1U G45C | 0.493
87 | A1U G45U | 0.585
88 | A1U G45A | 0.409
89 | C2A A6C | 0.306
90 | C2A A6G | 0.426
91 | C2A A6U | 0.331
92 | A1U C29A | 0.435
93 | A1U C29U | 0.595
94 | A1U C29G | 0.448
95 | A1U U21G | 0.303
96 | A1U U21A | 0.614

Row | Variant | self-cleavage
97 | A1U U21C | 0.379
98 | A1U U7A | 0.588
99 | A1U U7C | 0.555
100 | A1U U7G | 0.603
101 | A1U G36C | 0.328
102 | A1U G36A | 0.537
103 | A1U G36U | 0.438
104 | A1U G17C | 0.393
105 | A1U G17U | 0.357
106 | A1U G17A | 0.421
107 | C2A C20A | 0.292
108 | C2A C20G | 0.288
109 | C2A C20U | 0.372
110 | C2A A42C | 0.355
111 | C2A A42G | 0.344
112 | C2A A42U | 0.332
113 | C2A A34G | 0.48
114 | C2A A34C | 0.387
115 | C2A A34U | 0.402
116 | A1U G4C | 0.353
117 | A1U G4A | 0.342
118 | A1U G4U | 0.309
119 | C2A G5A | 0.37
120 | C2A G5C | 0.288

Row | Variant | self-cleavage
121 | C2A G5U | 0.319
122 | A1U U14A | 0.353
123 | A1U U14C | 0.531
124 | A1U U14G | 0.692
125 | A1U U28C | 0.5
126 | A1U U28G | 0.436
127 | A1U U28A | 0.3
128 | A1U C38U | 0.583
129 | A1U C38A | 0.528
130 | A1U C38G | 0.33
131 | C2A A44U | 0.375
132 | C2A A44C | 0.425
133 | C2A A44G | 0.989
134 | A1U C43U | 0.413
135 | A1U C43A | 0.347
136 | A1U C43G | 0.448
137 | A1U G22A | 0.372
138 | A1U G22C | 0.22
139 | A1U G22U | 0.33
140 | C2A A41U | 0.346
141 | C2A A41G | 0.294
142 | C2A A41C | 0.366
143 | C2A G8U | 0.794
144 | C2A G8C | 0.559

Row | Variant | self-cleavage
145 | C2A G8A | 0.587
146 | A1U G5U | 0.354
147 | A1U G5C | 0.287
148 | A1U G5A | 0.491
149 | C2A A26U | 0.374
150 | C2A A26G | 0.293
151 | C2A A26C | 0.328
152 | C2A C43A | 0.333
153 | C2A C43G | 0.338
154 | C2A C43U | 0.308
155 | A1U G39U | 0.347
156 | A1U G39A | 0.349
157 | A1U G39C | 0.356
158 | A1U C30A | 0.487
159 | A1U C30G | 0.414
160 | A1U C30U | 0.897
161 | A1U G27C | 0.317
162 | A1U G27U | 0.417
163 | A1U G27A | 0.437
164 | A1U C20A | 0.37
165 | A1U C20G | 0.412
166 | A1U C20U | 0.333
167 | A1U C11U | 0.423
